Experiments:
[1] = target: T1, mouse L1CAM (mL1CAM) protein fused with the Fc domain (R&D system, Cat No.5674-NC) (mouse, UniProt P11627 20-1123, limits assumed); experiment: monoclonal phage ELISA, plate coated with mL1CAM-Fc (3R clones), HRP-anti-M13, absorbance at 450 nm, cut-off 0.4
T1 construct: Bought protein; also called mL1CAM-Fc; antigen mL1CAM; not shown: Fc domain
Description: Specifically, the antigen mL1CAM protein was added to 96-well plates, incubated at 4° C. overnight, and then blocked with 2% MPBS at 37° C. for 2 hours. Since the antigen mL1CAM protein was fused with the Fc domain, Fc as an Fc control was also added to the 96-well plates, incubated at 4° C. overnight, and blocked with 2% MPBS at 37° C. for 2 hours. Then, the phages (up to 10¹¹ cfu) were added to the 96-well plates. After incubation at room temperature for 90 minutes, HRP-anti-M13 (Sino Biological, Cat No. 11973-MM05) was diluted in PBS to 1:5000, and added to 96-well plates. After incubation at room temperature for 1 hour, TMB substrate (Sigma, Cat No. T0440) and 2N H2504 (Merck, Cat No.100731) were sequentially added, and the absorbance (OD) at 450 nm was measured. As a result, when the absorbance (A450 nm) cut-off for the antigen mL1CAM was set to at least 0.4 for selection, one clone in the 2nd round, a total of 26 clones in the 3rd round, and a total of 9 clones in the 4th round specifically bound (positive) to the antigen mL1CAM in ELISA (FIG. 3).

[2] = target: T1, mouse L1CAM (mL1CAM) protein fused with …; experiment: BLI, Octet system (Forte Bio QK384)
Description: (§1) The clone 3R-H8 showing the highest binding affinity among four types of anti-L1CAM scFv was subjected to a conversion procedure, thereby securing the whole IgG1 antibody. Through the Octet system (Forte Bio, Model No. QK384) using the purified whole IgG1 antibody, the antigen-antibody affinity was analyzed for the antigen hL1CAM (Sino biological, Cat No.10140-H08H) protein or mL1CAM (R&D, Cat No. 5674-NC) protein.

[3] = target: T2, human L1CAM protein (hL1CAM, Sino biological, Cat No.10140-H08H) (human, UniProt P32004 20-1120); experiment: BLI, Octet system (Forte Bio QK384)
T2 construct: Bought protein used in the Octet assay; also called antigen hL1CAM
Description: as §1

[4] = target: T2, human L1CAM protein (hL1CAM, Sino …); experiment: Octet, AR2G sensor, 3R-H8 loaded as ligand at 5 ug/ml (10 mM acetate pH 5.0), hL1CAM as analyte 0 ~ 200 nM in 1X PBS + 0.09% Tween
Description: as §1

[5] = target: T1, mouse L1CAM (mL1CAM) protein fused with …; experiment: Octet, AR2G sensor, 3R-H8 loaded as ligand at 5 ug/ml (10 mM acetate pH 6.0), mL1CAM as analyte 0 ~ 100 nM in 1X PBS + 0.09% Tween
Description: as §1

[6] = target: T2, human L1CAM protein (hL1CAM, Sino …); experiment: Octet, AR2G sensor, 3R-H8 loaded as ligand at 5 ug/ml (10 mM acetate pH 5.0), hL1CAM as analyte 0 ~ 200 nM in 1X PBS + 0.09% Tween; column head kdis(1/s)
Description: as §1

[7] = target: T1, mouse L1CAM (mL1CAM) protein fused with …; experiment: Octet, AR2G sensor, 3R-H8 loaded as ligand at 5 ug/ml (10 mM acetate pH 6.0), mL1CAM as analyte 0 ~ 100 nM in 1X PBS + 0.09% Tween; column head kdis(1/s)
Description: as §1

T2 sequence (P32004 20-1120 limits assumed): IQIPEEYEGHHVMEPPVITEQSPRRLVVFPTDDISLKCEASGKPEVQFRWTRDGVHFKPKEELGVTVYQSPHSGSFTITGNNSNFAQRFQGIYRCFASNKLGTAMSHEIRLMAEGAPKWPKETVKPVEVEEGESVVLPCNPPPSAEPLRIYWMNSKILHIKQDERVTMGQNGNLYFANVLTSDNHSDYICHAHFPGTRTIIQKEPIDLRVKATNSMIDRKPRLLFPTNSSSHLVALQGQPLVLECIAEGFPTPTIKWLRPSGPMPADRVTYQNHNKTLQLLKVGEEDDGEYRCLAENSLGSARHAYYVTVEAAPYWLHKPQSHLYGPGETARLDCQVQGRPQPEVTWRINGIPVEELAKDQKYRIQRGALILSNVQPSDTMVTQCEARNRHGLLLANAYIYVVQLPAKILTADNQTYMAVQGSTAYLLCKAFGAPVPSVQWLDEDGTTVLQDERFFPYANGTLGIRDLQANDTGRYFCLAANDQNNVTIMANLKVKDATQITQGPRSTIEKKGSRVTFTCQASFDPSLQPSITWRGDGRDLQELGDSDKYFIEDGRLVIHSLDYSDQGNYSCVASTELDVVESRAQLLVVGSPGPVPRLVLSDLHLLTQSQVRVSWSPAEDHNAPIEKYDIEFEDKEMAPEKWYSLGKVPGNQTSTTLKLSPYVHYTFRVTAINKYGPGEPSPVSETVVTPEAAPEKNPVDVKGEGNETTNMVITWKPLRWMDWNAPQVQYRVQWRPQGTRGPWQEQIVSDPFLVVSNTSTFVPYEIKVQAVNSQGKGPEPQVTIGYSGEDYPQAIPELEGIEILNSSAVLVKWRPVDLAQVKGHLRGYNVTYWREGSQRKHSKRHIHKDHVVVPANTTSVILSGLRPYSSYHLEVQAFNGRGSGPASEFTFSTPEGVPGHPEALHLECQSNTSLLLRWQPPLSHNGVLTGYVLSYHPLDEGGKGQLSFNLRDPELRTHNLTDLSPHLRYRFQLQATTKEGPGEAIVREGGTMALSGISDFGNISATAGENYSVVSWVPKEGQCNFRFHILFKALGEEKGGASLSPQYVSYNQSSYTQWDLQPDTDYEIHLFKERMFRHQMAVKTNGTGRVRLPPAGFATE
T1 sequence (P11627 20-1123 limits assumed): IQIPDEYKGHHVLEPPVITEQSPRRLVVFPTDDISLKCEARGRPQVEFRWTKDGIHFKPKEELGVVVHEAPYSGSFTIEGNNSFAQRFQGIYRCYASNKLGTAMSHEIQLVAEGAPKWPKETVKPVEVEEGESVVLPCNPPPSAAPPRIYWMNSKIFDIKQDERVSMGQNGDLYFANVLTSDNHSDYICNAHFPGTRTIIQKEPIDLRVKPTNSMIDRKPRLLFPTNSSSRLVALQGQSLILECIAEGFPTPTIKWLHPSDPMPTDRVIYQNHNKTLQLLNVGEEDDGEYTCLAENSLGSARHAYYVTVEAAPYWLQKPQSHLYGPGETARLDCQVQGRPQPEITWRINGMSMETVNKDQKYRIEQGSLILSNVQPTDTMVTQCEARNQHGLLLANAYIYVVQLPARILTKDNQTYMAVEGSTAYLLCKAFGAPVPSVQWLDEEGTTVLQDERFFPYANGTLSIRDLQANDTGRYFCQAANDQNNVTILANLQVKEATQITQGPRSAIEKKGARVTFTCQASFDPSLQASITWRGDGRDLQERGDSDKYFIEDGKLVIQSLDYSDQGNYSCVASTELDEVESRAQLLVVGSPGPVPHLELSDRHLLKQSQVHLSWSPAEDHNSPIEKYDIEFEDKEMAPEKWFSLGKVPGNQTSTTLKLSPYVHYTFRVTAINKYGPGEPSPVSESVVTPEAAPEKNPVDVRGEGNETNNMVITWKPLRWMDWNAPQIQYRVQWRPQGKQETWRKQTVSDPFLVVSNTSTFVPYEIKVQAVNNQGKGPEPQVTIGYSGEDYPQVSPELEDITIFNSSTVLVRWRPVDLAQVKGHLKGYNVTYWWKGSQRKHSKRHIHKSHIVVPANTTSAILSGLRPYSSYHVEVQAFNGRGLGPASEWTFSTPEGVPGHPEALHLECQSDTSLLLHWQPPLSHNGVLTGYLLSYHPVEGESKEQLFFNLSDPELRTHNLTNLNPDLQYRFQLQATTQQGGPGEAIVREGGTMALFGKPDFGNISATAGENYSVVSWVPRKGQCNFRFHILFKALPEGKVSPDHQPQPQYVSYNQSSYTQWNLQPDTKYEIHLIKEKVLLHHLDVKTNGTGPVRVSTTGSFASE

B1: E7 (scFv)
scFv (VH-linker-VL): EVQLVESGGGLVQPGGSLRLSCAASGFTFSSYAMHWVRQAPGKGLEWVSAISSSGSSKYYADSVKGRFTISRDNSKNTLYLQINSLRAEDTAVYYCAKDESYGWLYAFDLWGQGTLVTVSSGGGGSGGGGSGGGGSDIQMTQSPSSLSASVGDRVTITCRASQSISNYLNWYQQKPGKAPKLLIYAASRLQSGVPSRFSGSGSGTDFTLTISSLQPEDFATYYCQQSYSFPLTFGQGTKVEIK
notes: also called mL1CAM-3R-E7; ID 4 group
B1: binds [1].

B2: G2 (scFv)
scFv (VH-linker-VL): EVQLVESGGGLVQPGGSLRLSCAASGFTFSSYAMHWVRQAPGKGLEWVSAISSSGSSKYYADSVKGRFTISRDNSKNTLYLQINSLRAEDTAVYYCAKDESYGWLYAFDLWGQGTLVTVSSGGGGSGGGGSGGGGSDIQMTQSPSSLSASVGDRVTITCRASQSISNYLNWYQQKPGKAPKLLIYAASRLQSGVPSRFSGSGSGTDFTLTISSLQPEDFATYYCQQSYSFPLTFGQGTKVEIK
notes: also called mL1CAM-3R-G2; ID 4 group
B2: binds [1].

B3: whole IgG1 antibody converted from clone 3R-H8 (antibody, V domains shown)
VH: EVQLVESGGGLVQPGGSLRLSCAASGFTFSDYAMNWVRQAPGKGLEWVSAISSTGSTIYYADSVKGRFTISRDNSKNTLYLQMNSLRAEDTAVYYCAKQSTYFYSYFDVWGQGTLVTVSS
VL: not shown
notes: also called 3R-H8 whole IgG1; mL1CAM-3R-H8 IgG1
In the case of B3, the Kd [2] is reported as 0.0205 µM, the Kd [3] is reported as 0.00414 µM and the kon [4] is reported as 57700 M⁻¹ s⁻¹. The kon [5] was 462000 M⁻¹ s⁻¹, the koff [6] was 0.000239 s⁻¹ and the koff [7] was 0.00945 s⁻¹.
